According to IntAct's records for PubMed 21718540:

B1: TGF-beta receptor type-1 (Mus musculus), Q64729 (parent)
chain: MEAAAAAPRRPQLLIVLVAAATLLPGAKALQCFCHLCTKDNFTCETDGLCFVSVTETTDKVIHNSMCIAEIDLIPRDRPFVCAPSSKTGAVTTTYCCNQDHCNKIELPTTGPFSEKQSAGLGPVELAAVIAGPVCFVCIALMLMVYICHNRTVIHHRVPNEEDPSLDRPFISEGTTLKDLIYDMTTSGSGSGLPLLVQRTIARTIVLQESIGKGRFGEVWRGKWRGEEVAVKIFSSREERSWFREAEIYQTVMLRHENILGFIAADNKDNGTWTQLWLVSDYHEHGSLFDYLNRYTVTVEGMIKLALSTASGLAHLHMEIVGTQGKPAIAHRDLKSKNILVKKNGTCCIADLGLAVRHDSATDTIDIAPNHRVGTKRYMAPEVLDDSINMKHFESFKRADIYAMGLVFWEIARRCSIGGIHEDYQLPYYDLVPSDPSVEEMRKVVCEQKLRPNIPNRWQSCEALRVMAKIMRECWYANGAARLTALRIKKTLSQLSQQEGIKM
partner: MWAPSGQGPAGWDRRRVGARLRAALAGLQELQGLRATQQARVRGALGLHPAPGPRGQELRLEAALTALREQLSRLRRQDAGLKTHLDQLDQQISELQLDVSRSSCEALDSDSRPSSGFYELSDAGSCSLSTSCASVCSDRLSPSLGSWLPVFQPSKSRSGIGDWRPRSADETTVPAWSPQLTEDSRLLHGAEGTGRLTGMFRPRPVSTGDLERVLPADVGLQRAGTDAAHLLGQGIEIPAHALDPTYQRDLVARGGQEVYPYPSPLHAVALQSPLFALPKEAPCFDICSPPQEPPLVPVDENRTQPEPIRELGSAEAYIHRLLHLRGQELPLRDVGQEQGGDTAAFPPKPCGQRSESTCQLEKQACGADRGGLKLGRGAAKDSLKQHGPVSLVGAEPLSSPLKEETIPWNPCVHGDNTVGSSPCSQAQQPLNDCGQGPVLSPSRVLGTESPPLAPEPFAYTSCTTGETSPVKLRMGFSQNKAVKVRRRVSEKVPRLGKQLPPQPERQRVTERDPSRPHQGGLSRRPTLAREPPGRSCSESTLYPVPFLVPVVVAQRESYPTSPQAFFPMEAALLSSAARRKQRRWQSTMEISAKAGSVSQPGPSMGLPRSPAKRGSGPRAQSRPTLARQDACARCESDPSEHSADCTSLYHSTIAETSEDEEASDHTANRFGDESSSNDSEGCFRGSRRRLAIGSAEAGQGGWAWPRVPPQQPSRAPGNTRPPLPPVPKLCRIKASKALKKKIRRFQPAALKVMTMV

Variants of: B1
Details: with dact2_mouse Dact2, Q7TN08

Row | effect of a mutation on the interaction | Variant
1 | decreasing interaction | MEAAAAAPRRPQLLIVLVAAATLLPGAKALQCFCHLCTKDNFTCETDGLCFVSVTETTDKVIHNSMCIAEIDLIPRDRPFVCAPSSKTGAVTTTYCCNQDHCNKIELPTTGPFSEKQSAGLGPVELAAVIAGPVCFVCIALMLMVYICHNRTVIHHRVPNEEDPSLDRPFISEGTTLKDLIYDMTTSGSGSGLPLLVQRTIARDIVLQESIGKGRFGEVWRGKWRGEEVAVKIFSSREERSWFREAEIYQTVMLRHENILGFIAADNKDNGTWTQLWLVSDYHEHGSLFDYLNRYTVTVEGMIKLALSTASGLAHLHMEIVGTQGKPAIAHRDLKSKNILVKKNGTCCIADLGLAVRHDSATDTIDIAPNHRVGTKRYMAPEVLDDSINMKHFESFKRADIYAMGLVFWEIARRCSIGGIHEDYQLPYYDLVPSDPSVEEMRKVVCEQKLRPNIPNRWQSCEALRVMAKIMRECWYANGAARLTALRIKKTLSQLSQQEGIKM [T204D]
